Measurements reported in article PMC9482650, “Quantitative fragmentomics allow affinity mapping of interactomes” (Nature Communications, 2022).

T1: DFNB31_1, Q9P202
T1 sequence (Q9P202 135-233, limits assumed, looked up): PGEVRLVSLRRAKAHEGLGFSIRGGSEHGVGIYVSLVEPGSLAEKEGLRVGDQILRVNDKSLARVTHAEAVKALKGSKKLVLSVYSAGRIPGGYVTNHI

T2: APBA2_1, Q99767
T2 sequence (Q99767 563-664, limits assumed, looked up): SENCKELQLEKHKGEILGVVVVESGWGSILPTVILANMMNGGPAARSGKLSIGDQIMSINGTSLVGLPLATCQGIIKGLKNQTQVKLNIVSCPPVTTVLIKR

T3: TIAM2, Q8IVF5
T3 sequence (Q8IVF5 885-986, limits assumed, looked up): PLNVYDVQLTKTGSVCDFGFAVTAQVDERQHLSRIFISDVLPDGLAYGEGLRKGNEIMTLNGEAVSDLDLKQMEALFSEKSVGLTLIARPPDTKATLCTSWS

T4: NHERF3_1, Q5T2W1
T4 sequence (Q5T2W1 4-100, limits assumed, looked up): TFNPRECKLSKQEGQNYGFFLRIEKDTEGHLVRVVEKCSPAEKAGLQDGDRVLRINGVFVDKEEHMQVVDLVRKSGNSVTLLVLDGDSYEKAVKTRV

T5: PDZD7_3, Q9H5P4
T5 sequence (Q9H5P4 857-944, limits assumed, looked up): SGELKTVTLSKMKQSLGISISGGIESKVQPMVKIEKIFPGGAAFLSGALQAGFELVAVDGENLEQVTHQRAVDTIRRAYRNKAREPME

T6: SIPA1L2, Q9P2F8
T6 sequence (Q9P2F8 945-1036, limits assumed, looked up): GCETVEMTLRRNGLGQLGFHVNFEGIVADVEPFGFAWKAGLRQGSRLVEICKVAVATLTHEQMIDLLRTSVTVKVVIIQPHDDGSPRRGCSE

T7: LRRC7, Q96NW7
T7 sequence (Q96NW7 1440-1537, limits assumed, looked up): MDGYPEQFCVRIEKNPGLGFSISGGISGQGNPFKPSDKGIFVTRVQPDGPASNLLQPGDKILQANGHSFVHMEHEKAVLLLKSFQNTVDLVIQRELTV

T8: LNX2_3, Q8N448
T8 sequence (Q8N448 463-564, limits assumed, looked up): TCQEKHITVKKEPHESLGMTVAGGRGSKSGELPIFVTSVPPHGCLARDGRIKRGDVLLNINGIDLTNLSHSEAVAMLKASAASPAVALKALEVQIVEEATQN

T9: HTRA4, P83105
T9 sequence (P83105 378-476, limits assumed, looked up): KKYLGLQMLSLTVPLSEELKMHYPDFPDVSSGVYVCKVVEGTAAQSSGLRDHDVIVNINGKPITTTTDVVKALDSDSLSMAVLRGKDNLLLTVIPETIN

T10: TJP3_3, O95049
T10 sequence (O95049 375-456, limits assumed, looked up): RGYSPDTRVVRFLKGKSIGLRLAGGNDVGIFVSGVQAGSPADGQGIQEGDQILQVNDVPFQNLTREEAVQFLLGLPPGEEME

T11: DFNB31_2, Q9P202
T11 sequence (Q9P202 274-371, limits assumed, looked up): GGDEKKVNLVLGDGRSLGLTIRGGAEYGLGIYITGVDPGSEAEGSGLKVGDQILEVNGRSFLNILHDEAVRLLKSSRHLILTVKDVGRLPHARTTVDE

T12: GRIP1_5, Q9Y3R0
T12 sequence (Q9Y3R0 568-668, limits assumed, looked up): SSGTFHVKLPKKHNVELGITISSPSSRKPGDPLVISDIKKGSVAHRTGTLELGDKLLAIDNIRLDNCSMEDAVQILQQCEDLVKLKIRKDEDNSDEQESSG

T13: APBA1_2, Q02410
T13 sequence (Q02410 742-832, limits assumed, looked up): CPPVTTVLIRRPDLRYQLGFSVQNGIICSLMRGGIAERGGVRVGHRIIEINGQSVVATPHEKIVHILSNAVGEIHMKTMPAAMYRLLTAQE


Each binder was assayed against CASK, O14936 (assay: holdup assay). Conditions: plain residues with an end cap or a label only (N-terminal biotin on a linker: ado-ado).
Chain of CASK, O14936 (O14936 487-570): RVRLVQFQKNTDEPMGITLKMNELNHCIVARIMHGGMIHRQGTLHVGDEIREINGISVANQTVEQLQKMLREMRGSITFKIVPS
Set-up: key: below the threshold = too weak to quantify, mostly under pKd 3.1 to 4
SKSLERATQL [COMMD3, Q9UBI1] was tested, and the pKd was “below the threshold”. For REVVMRVTTV [MARCHF9, Q86YJ5], the pKd was 3.5.

These binders were tested against T1, DFNB31_1, Q9P202 (assay: holdup assay). Conditions: plain residues with an end cap or a label only (N-terminal biotin on a linker: ado-ado).
Set-up: key: below the threshold = too weak to quantify, mostly under pKd 3.1 to 4
Binder SKSLERATQL [COMMD3, Q9UBI1] has a pKd of 3.74. For REVVMRVTTV [MARCHF9, Q86YJ5], the pKd was 3.98.

These binders were tested against DLG1_1, Q12959 (assay: holdup assay). Conditions: plain residues with an end cap or a label only (N-terminal biotin on a linker: ado-ado).
Set-up: key: below the threshold = too weak to quantify, mostly under pKd 3.1 to 4
SKSLERATQL [COMMD3, Q9UBI1] showed a pKd of 3.55. With REVVMRVTTV [MARCHF9, Q86YJ5] the pKd was 5.24.

Each binder was assayed against GIPC2, Q8TF65 (assay: holdup assay). Conditions: plain residues with an end cap or a label only (N-terminal biotin on a linker: ado-ado).
Chain of GIPC2, Q8TF65 (Q8TF65 112-203): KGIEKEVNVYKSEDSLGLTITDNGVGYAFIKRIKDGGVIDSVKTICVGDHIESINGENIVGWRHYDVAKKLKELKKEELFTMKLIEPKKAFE
Set-up: key: below the threshold = too weak to quantify, mostly under pKd 3.1 to 4
For SKSLERATQL [COMMD3, Q9UBI1], the pKd was 3.49. For REVVMRVTTV [MARCHF9, Q86YJ5], the pKd was “below the threshold”.

The binders below were run against GRIP2_6, Q9C0E4 (assay: holdup assay). Conditions: plain residues with an end cap or a label only (N-terminal biotin on a linker: ado-ado).
Chain of GRIP2_6, Q9C0E4 (Q9C0E4 648-740): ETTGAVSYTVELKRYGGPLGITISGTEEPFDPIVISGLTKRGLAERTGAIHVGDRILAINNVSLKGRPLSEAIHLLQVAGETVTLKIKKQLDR
Set-up: key: below the threshold = too weak to quantify, mostly under pKd 3.1 to 4
For SKSLERATQL [COMMD3, Q9UBI1], the pKd was “below the threshold”. With REVVMRVTTV [MARCHF9, Q86YJ5] the pKd was “below the threshold”.

The binders below were run against SCRIB_1, Q14160 (assay: holdup assay). Conditions: plain residues with an end cap or a label only (N-terminal biotin on a linker: ado-ado).
Chain of SCRIB_1, Q14160 (Q14160 718-814): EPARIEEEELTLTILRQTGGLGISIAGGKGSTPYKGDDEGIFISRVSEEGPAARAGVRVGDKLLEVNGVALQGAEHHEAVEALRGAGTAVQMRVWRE
Set-up: key: below the threshold = too weak to quantify, mostly under pKd 3.1 to 4
In the case of SKSLERATQL [COMMD3, Q9UBI1], the pKd is reported as 3.83. For REVVMRVTTV [MARCHF9, Q86YJ5], the pKd was 4.72.

The binders below were run against T2, APBA2_1, Q99767 (assay: holdup assay). Conditions: plain residues with an end cap or a label only (N-terminal biotin on a linker: ado-ado).
Set-up: key: below the threshold = too weak to quantify, mostly under pKd 3.1 to 4
For SKSLERATQL [COMMD3, Q9UBI1], the pKd was “below the threshold”. REVVMRVTTV [MARCHF9, Q86YJ5] was tested, and the pKd was “below the threshold”.

Each binder was assayed against NHERF4_2, Q86UT5 (assay: holdup assay). Conditions: plain residues with an end cap or a label only (N-terminal biotin on a linker: ado-ado).
Chain of NHERF4_2, Q86UT5 (Q86UT5 220-308): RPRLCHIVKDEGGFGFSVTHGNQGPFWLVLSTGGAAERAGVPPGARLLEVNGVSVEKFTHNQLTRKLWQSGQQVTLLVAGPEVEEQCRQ
Set-up: key: below the threshold = too weak to quantify, mostly under pKd 3.1 to 4
With SKSLERATQL [COMMD3, Q9UBI1] the pKd was “below the threshold”. REVVMRVTTV [MARCHF9, Q86YJ5] showed a pKd of 3.49.

Each binder was assayed against T3, TIAM2, Q8IVF5 (assay: holdup assay). Conditions: plain residues with an end cap or a label only (N-terminal biotin on a linker: ado-ado).
Set-up: key: below the threshold = too weak to quantify, mostly under pKd 3.1 to 4
SKSLERATQL [COMMD3, Q9UBI1] was tested, and the pKd was 3.88. In the case of REVVMRVTTV [MARCHF9, Q86YJ5], the pKd is reported as 3.85.

These binders were tested against T4, NHERF3_1, Q5T2W1 (assay: holdup assay). Conditions: plain residues with an end cap or a label only (N-terminal biotin on a linker: ado-ado).
Set-up: key: below the threshold = too weak to quantify, mostly under pKd 3.1 to 4
SKSLERATQL [COMMD3, Q9UBI1] gave a pKd of 5.82. For REVVMRVTTV [MARCHF9, Q86YJ5], the pKd was “below the threshold”.

The binders below were run against T5, PDZD7_3, Q9H5P4 (assay: holdup assay). Conditions: plain residues with an end cap or a label only (N-terminal biotin on a linker: ado-ado).
Set-up: key: below the threshold = too weak to quantify, mostly under pKd 3.1 to 4
SKSLERATQL [COMMD3, Q9UBI1] gave a pKd of 4.23. Binder REVVMRVTTV [MARCHF9, Q86YJ5] has a pKd of 5.24.

These binders were tested against T6, SIPA1L2, Q9P2F8 (assay: holdup assay). Conditions: plain residues with an end cap or a label only (N-terminal biotin on a linker: ado-ado).
Set-up: key: below the threshold = too weak to quantify, mostly under pKd 3.1 to 4
With SKSLERATQL [COMMD3, Q9UBI1] the pKd was 3.51. REVVMRVTTV [MARCHF9, Q86YJ5] was tested, and the pKd was “below the threshold”.

What follows are binders tested against T7, LRRC7, Q96NW7 (assay: holdup assay). Conditions: plain residues with an end cap or a label only (N-terminal biotin on a linker: ado-ado).
Set-up: key: below the threshold = too weak to quantify, mostly under pKd 3.1 to 4
For SKSLERATQL [COMMD3, Q9UBI1], the pKd was “below the threshold”. For REVVMRVTTV [MARCHF9, Q86YJ5], the pKd was “below the threshold”.

The binders below were run against T8, LNX2_3, Q8N448 (assay: holdup assay). Conditions: plain residues with an end cap or a label only (N-terminal biotin on a linker: ado-ado).
Set-up: key: below the threshold = too weak to quantify, mostly under pKd 3.1 to 4
For SKSLERATQL [COMMD3, Q9UBI1], the pKd was “below the threshold”. REVVMRVTTV [MARCHF9, Q86YJ5] was tested, and the pKd was “below the threshold”.

These binders were tested against T9, HTRA4, P83105 (assay: holdup assay). Conditions: plain residues with an end cap or a label only (N-terminal biotin on a linker: ado-ado).
Set-up: key: below the threshold = too weak to quantify, mostly under pKd 3.1 to 4
For SKSLERATQL [COMMD3, Q9UBI1], the pKd was “below the threshold”. With REVVMRVTTV [MARCHF9, Q86YJ5] the pKd was 4.5.

These binders were tested against Inadl_3, Q8NI35 (assay: holdup assay). Conditions: plain residues with an end cap or a label only (N-terminal biotin on a linker: ado-ado).
Chain of Inadl_3, Q8NI35 (Q8NI35 359-469): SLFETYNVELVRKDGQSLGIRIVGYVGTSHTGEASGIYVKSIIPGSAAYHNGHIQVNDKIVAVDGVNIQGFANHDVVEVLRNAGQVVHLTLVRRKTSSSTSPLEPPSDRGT
Set-up: key: below the threshold = too weak to quantify, mostly under pKd 3.1 to 4
In the case of SKSLERATQL [COMMD3, Q9UBI1], the pKd is reported as “below the threshold”. In the case of REVVMRVTTV [MARCHF9, Q86YJ5], the pKd is reported as 3.94.

Each binder was assayed against MAGI2_6, Q86UL8 (assay: holdup assay). Conditions: plain residues with an end cap or a label only (N-terminal biotin on a linker: ado-ado).
Chain of MAGI2_6, Q86UL8 (Q86UL8 1141-1229): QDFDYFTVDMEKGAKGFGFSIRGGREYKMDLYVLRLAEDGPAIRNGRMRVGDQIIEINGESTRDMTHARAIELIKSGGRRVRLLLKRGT
Set-up: key: below the threshold = too weak to quantify, mostly under pKd 3.1 to 4
SKSLERATQL [COMMD3, Q9UBI1] gave a pKd of 3.79. With REVVMRVTTV [MARCHF9, Q86YJ5] the pKd was 4.4.

What follows are binders tested against NHERF2_2, Q15599 (assay: holdup assay). Conditions: plain residues with an end cap or a label only (N-terminal biotin on a linker: ado-ado).
Chain of NHERF2_2, Q15599 (Q15599 142-238): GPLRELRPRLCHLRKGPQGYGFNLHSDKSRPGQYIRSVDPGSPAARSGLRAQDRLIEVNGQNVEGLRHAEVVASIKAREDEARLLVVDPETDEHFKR
Set-up: key: below the threshold = too weak to quantify, mostly under pKd 3.1 to 4
For SKSLERATQL [COMMD3, Q9UBI1], the pKd was 4.58. For REVVMRVTTV [MARCHF9, Q86YJ5], the pKd was “below the threshold”.

What follows are binders tested against T10, TJP3_3, O95049 (assay: holdup assay). Conditions: plain residues with an end cap or a label only (N-terminal biotin on a linker: ado-ado).
Set-up: key: below the threshold = too weak to quantify, mostly under pKd 3.1 to 4
With SKSLERATQL [COMMD3, Q9UBI1] the pKd was “below the threshold”. For REVVMRVTTV [MARCHF9, Q86YJ5], the pKd was “below the threshold”.

Each binder was assayed against T11, DFNB31_2, Q9P202 (assay: holdup assay). Conditions: plain residues with an end cap or a label only (N-terminal biotin on a linker: ado-ado).
Set-up: key: below the threshold = too weak to quantify, mostly under pKd 3.1 to 4
In the case of SKSLERATQL [COMMD3, Q9UBI1], the pKd is reported as “below the threshold”. REVVMRVTTV [MARCHF9, Q86YJ5] was tested, and the pKd was 3.6.

Each binder was assayed against DLG1_2, Q12959 (assay: holdup assay). Conditions: plain residues with an end cap or a label only (N-terminal biotin on a linker: ado-ado).
Set-up: key: below the threshold = too weak to quantify, mostly under pKd 3.1 to 4
SKSLERATQL [COMMD3, Q9UBI1] was tested, and the pKd was 3.92. REVVMRVTTV [MARCHF9, Q86YJ5] gave a pKd of 5.44.

Each binder was assayed against MAST1, Q9Y2H9 (assay: holdup assay). Conditions: plain residues with an end cap or a label only (N-terminal biotin on a linker: ado-ado).
Chain of MAST1, Q9Y2H9 (Q9Y2H9 962-1065): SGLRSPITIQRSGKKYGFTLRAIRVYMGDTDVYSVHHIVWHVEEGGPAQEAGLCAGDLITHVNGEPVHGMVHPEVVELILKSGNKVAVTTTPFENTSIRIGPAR
Set-up: key: below the threshold = too weak to quantify, mostly under pKd 3.1 to 4
In the case of SKSLERATQL [COMMD3, Q9UBI1], the pKd is reported as 4.69. REVVMRVTTV [MARCHF9, Q86YJ5] showed a pKd of 4.65.

The binders below were run against DLG1_3, Q12959 (assay: holdup assay). Conditions: plain residues with an end cap or a label only (N-terminal biotin on a linker: ado-ado).
Set-up: key: below the threshold = too weak to quantify, mostly under pKd 3.1 to 4
For SKSLERATQL [COMMD3, Q9UBI1], the pKd was 3.97. With REVVMRVTTV [MARCHF9, Q86YJ5] the pKd was 5.01.

These binders were tested against T12, GRIP1_5, Q9Y3R0 (assay: holdup assay). Conditions: plain residues with an end cap or a label only (N-terminal biotin on a linker: ado-ado).
Set-up: key: below the threshold = too weak to quantify, mostly under pKd 3.1 to 4
In the case of SKSLERATQL [COMMD3, Q9UBI1], the pKd is reported as “below the threshold”. In the case of REVVMRVTTV [MARCHF9, Q86YJ5], the pKd is reported as “below the threshold”.

What follows are binders tested against T13, APBA1_2, Q02410 (assay: holdup assay). Conditions: plain residues with an end cap or a label only (N-terminal biotin on a linker: ado-ado).
Set-up: key: below the threshold = too weak to quantify, mostly under pKd 3.1 to 4
Work on SKSLERATQL [COMMD3, Q9UBI1] yielded a pKd of 4.16. For REVVMRVTTV [MARCHF9, Q86YJ5], the pKd was 3.77.
